{"source": "the DeepSol protein solubility set"}
{"assay": "soluble on expression in E. coli; label from the status in PepcDB or PDB records"}
{"sequence": "MAGDKGGGDGERRLRQPIVVVLGHVDHGKTTLLDKIRRTAVAAKEAGGITQHIGASIVPADVIEKIAEPLKKVIPVKLVIPGLLFIDTPGHELFSNLRRRGGSVADFAILVVDIMEGFKPQTYEALELLKERRVPFLIAANKIDRIPGWKPNPDAPFIETIRRQDPKVREILEQRVYEIVGKMYEAGLPAELFTRIKDFRRKIAIVPVSARTGEGIPELLAVLAGLTQTYLKERLRYAEGPAKGVVLEVKEMQGFGTVVDAVIYDGVLKKEDIIVVGGREGPIVTRVRALLMPAPLQDIRSREARFVQVDRVYAAAGVRIAAPGLDDVIAGSPIYAAESEEEARKLMEAVQREIEELRFRTENIGVVVKADTLGTLEALVEALRRRGVPVRLADIGPVSRSDVLDAAVTRKIDPYLGVVLAFNVKVLPEAEEEASRAGVKIFRESMIYKLIEDYEEWVKKEKEAERLKALNSLIRPGKFRILPGYVFRRSDPAIVGVEVLGGVIRPGYPVMDSQGRELGRIMAIKDRDRSLEEARLGAAVAVSIQGRILIGRHANEGDILYTNVPAQHAYKILTEFKDLVSKDELDVLREIAEIKRRAADHEYNKVLLRLKIKRVSQ", "soluble on expression in E. coli": "soluble"}
{"sequence": "MAGDPMLTAPPKEAARPTLMPRAQSYKDLTHLPAPTGKIFVSVYNIQDETGQFKPYPASNFSTAVPQSATAMLVTALKDSRWFIPLERQGLQNLLNERKIIRAAQENGTVAINNRIPLQSLTAANIMVEGSIIGYESNVKSGGVGARYFGIGADTQYQLDQIAVNLRVVNVSTGEILSSVNTSKTILSYEVQAGVFRFIDYQRLLEGEVGYTSNEPVMLCLMSAIETGVIFLINDGIDRGLWDLQNKAERQNDILVKYRHMSVPPESLEHHHHHH", "soluble on expression in E. coli": "not soluble"}
{"sequence": "MAGDPMYHSRPIFNIIDSSNIQDRRELKLVLRHTEIAYRSFAQEDLIPAQRSWMNSIINTDVPIDPAIDEVVKRFCEVACLPGPAGIPLNIILNDSLTYVYCSFQAMRKYAHKRFYDGVSDEGVVISTVPPYAEGITKETMRSWHNNVCQNTSNETHDLDAYIAFLPTSLQNPSFSHMKIGCDSFLAPSRVDPFCVEIIAVGKALFHDNGLKKNPRCGGQWLPPSCLEHHHHHH", "soluble on expression in E. coli": "not soluble"}
{"sequence": "MAGHSIPHFQNDGGHSVIEIGVKEFMCTGASVPFDHPHIFIDMGDDNEKVCSYCSTLYRYNPSLKAEQTNPPGCVFHVKAA", "soluble on expression in E. coli": "not soluble"}
{"sequence": "MAGKQITLASLPIGKKARVKSLTLDGTIRRRIMDLGLVSDTIVEALQKSPSGDPTAYHIRGAVIALRSEEASKIMVEVN", "soluble on expression in E. coli": "not soluble"}
{"sequence": "MAGNFWQSSHYLQWILDKQDLLKERQKDLKFLSEEEYWKLQIFFTNVIQALGEHLKLRQQVIATATVYFKRFYARYSLKSIDPVLMAPTCVFLASKVEEFGVVSNTRLIAAATSVLKTRFSYAFPKEFPYRMNHILECEFYLLELMDCCLIVYHPYRPLLQYVQDMGQEDMLLPLAWRIVNDTYRTDLCLLYPPFMIALACLHVACVVQQKDARQWFAELSVDMEKILEIIRVILKLYEQWKNFDERKEMATILSKMPKPKPPPNSEGEQGPNGSQNSSYSQS", "soluble on expression in E. coli": "soluble"}
{"sequence": "MAGPLSGLRVVELAGIGPGPHAAMILGDLGADVVRIDRPSSVDGISRDAMLRNRRIVTADLKSDQGLELALKLIAKADVLIEGYRPGVTERLGLGPEECAKVNDRLIYARMTGWGQTGPRSQQAGHDINYISLNGILHAIGRGDERPVPPLNLVGDFGGGSMFLLVGILAALWERQSSGKGQVVDAAMVDGSSVLIQMMWAMRATGMWTDTRGANMLDGGAPYYDTYECADGRYVAVGAIEPQFYAAMLAGLGLDAAELPPQNDRARWPELRALLTEAFASHDRDHWGAVFANSDACVTPVLAFGEVHNEPHIIERNTFYEANGGWQPMPAPRFSRTASSQPRPPAATIDIEAVLTDWDG", "soluble on expression in E. coli": "soluble"}
{"sequence": "MAHAGRTGYDNREIVMKYIHYKLSQRGYEWDAGDDVEENRTEAPEGTESEVVHLTLRQAGDDFSRRYRRDFAEMSSQLHLTPFTARGRFATVVEELFRDGVNWGRIVAFFEFGGVMCVESVNREMSPLVDNIALWMTEYLNRHLHTWIQDNGGWDAFVELYGPSMR", "soluble on expression in E. coli": "soluble"}
{"sequence": "MAHHHHHHGICSSAPTLGEIWKRKLNQLDAKEFMAYRRRFVVEVDRNEAREALAKGKTNTGHAVSRGTAKLAWIDERGGVELKGTVVDLGCGRGSWSYYAASQPNVREVKAYTLGTSGHEKPRLVETFGWNLITFKSKVDVTKMEPFQADTVLCDIGESNPTAAVEASRTLTVLNVISRWLEYNQGCGFCVKVLNPYSCDVLEALMKMQARFGGGLIRVPLSRNSTHEMYFVSGIKNNIMGNVTAVSRQLLKRMEEQGGERVVPDYKFSTGTRSNL", "soluble on expression in E. coli": "soluble"}
{"sequence": "MAHHHHHHMAANCIFCKIIKGDIPCAKVAETSKALAFMDINPLSRGHMLVIPKEHASCLHELGMEDAADVGVLLAKASRAVAGPDGSMQYNVLQNNGSLAHQEVPHVHFHIIPKTDEKTGLKIGWDTVKVASDELAEDAKRYSEAIAKI", "soluble on expression in E. coli": "soluble"}
{"sequence": "MAHHHHHHMADSIKSSNSFQKLDNIDAKETSTVDRKWVALTAYQPVDVVTKTVEVPIIKTVEKYVPKTIIQEKIIHVPKNVTHIVEKIVEVPEVKYIEKIVEVPHIHYKNKYVPKIEIVEKVVERQKIIEKWHDKIVEVPQIKEVVRFKQIEDSEEIIKYVPRNSKNIDWEDEYKKYTESKGLQRYSLDQNNIYQQANSFNQFNENAYNQNAFNRSYELLNKQSSVKSQNNASGENFSQMNFYNQYSGANFEQERSIQASNFEPSGSMQLKRLSSEEIKPAGCCSAACT", "soluble on expression in E. coli": "soluble"}
{"sequence": "MAHHHHHHMAITLPKLKYALNALSPHISEETLSFHYNKHHAGYVNKLNGLIKDTPLANKSLTDILKESTGAIFNNAAQIWNHSFYWDSMGPNCGGEPHGEIKEKIQEDFGSFNNFKDQFSNVLCGHFGSGWGWLALNKNNKLVILQTHDAGNPIKENTGIPILTCDVWEHAYYIDYRNDRLSYVKAWWNLVNWNFANENLKNALNK", "soluble on expression in E. coli": "soluble"}
{"sequence": "MAHHHHHHMALISQSFAERYAELVARVPTHTELLLDVQRREVGERKALEEMCQVAFQDVLHVAGVMIADKKALGRGALAHRNRFEVALYKKQTAVWFQAAPPRKVALPTTRPLHGFPHAAFAELCQEERELRQWHYGVERRLREHIEEACGRAWFFLNVINETARSESLSRQRLQHEEDEDFTAIKQSFFRAVPADYYRNVVIARYGQTISAIEQAKDLTFEELEEKVRAALMEEEEASWRSAYQYLQDMYDAQLFALNHREVLGRYELEEEERNTLFPLILQCCREDFGIVFYHIPALALHFNSSQPCLRALCVAQLQEAPRRMAATRSRFSWIPAFDLAGMASELGLEEDGDEIEDSAEGETQEAEGSTDGGDDLHNALPPPVDDMPPINTASTMVFEPEVGSSKVPEPETKREEAEVDTSQSAVVALAQRTHEESVLATEMEEHVPVSCAGEENE", "soluble on expression in E. coli": "soluble"}
{"sequence": "MAHHHHHHMAQAIRDAFTEEASLTVVEEWSSKVVSDLEARATNAHHARQGVLVKPYTADAAETVPVTIVASLREFQGQLYDIYRAAETIRTVIACRIPELKAEDNLGVEVQMTVLKMIDSLEGKLLGSSSGDKEGGAPGVAGMYAAREYLAARGSVEDKVLGKVSDDDKKTKSAAPSVLMELQQIDADALLKLELSATQISTQIRSFINAYAVNWKKLIQPRTNASEKSIS", "soluble on expression in E. coli": "soluble"}
{"sequence": "MAHHHHHHMAVENMLGKLKQNPGDYYNSVSALFFHRPYNMMPIQAMSFLYVRGLARATSAEHKKYFEELCSKAKVEPAAVQTELDVIPDYFGMIESGQEPKDVFGATNKVAKAVRADKDFSSLLSRKMSLGSSAMANFGNLYTASLPCWIAAGLEEAYNKKQDITNHPMVMVGYGSGDASEAIPIVPVKGWEEAASKINVAAALEKPVNLTREQYEGMHNGSLKSDLAAGNRQKEFVVAHIGSRNDMAFQDIGIEYYQFVH", "soluble on expression in E. coli": "not soluble"}
{"sequence": "MAHHHHHHMCATSKENTPEFYKKYVKDIIDRIEDNARREFEAIWRDHESHPGMSKTLISDTLSEKNVKVRANILASDVFKNKKLVRYILFHYTPKTLLEVVPVDELMNRVPIAYQHAICAMWLASEYVYSTGIDSNEFDFFSFMSAHIERASAMAKEQSR", "soluble on expression in E. coli": "soluble"}
{"sequence": "MAHHHHHHMCGSCWAFAAIGNIEGQWFLAGNPLTRLSEQMLVSCDNTNSGCGGGSSLKAFKWIVDRNNGAVYTEESYPYHSCIGIKLPCTTSGHTVGATITGHVELPQDEAQIAAWLAVNGPVAVVVDASSWIFYTGGVLTNCVSKKLDHAVLLVGYNDSATAPYWIIKNSWTTQWGEDGYIRIAKGSNQCLVKEEASSAVVGGPGATPEPTTTTTTSAPGPSPSCFVQMSCTDAACIVGCENVTLPTGQCLLTTSGASAIVTCGAETLTEEVFLTSTHCSGPSVRSSVPLNKCNRLLRGSVEFFRGSSSSGRLADVDRQRRYQPYHSRHRRL", "soluble on expression in E. coli": "soluble"}
